Laboratory results published in the supplement of paper PMC9732359.
± gives the uncertainty stated by the source.

Experiment: protein stability index of a GFP-peptide fusion (yeast GPS) (PSI 1-4); higher = more stable; sorted into four equal gates, so the index is relative within each strain
Settings: pdr5∆
Outline: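 Sequencing reads from sorted gates were used to score each peptide. The library consisted of tiled 17-residue yeast protein peptides fused downstream of GFP on a Cherry-expressing plasmid, pooled and carried in yeast. Mid-log cultures in leucine-free medium were split into four equal gates by GFP/Cherry ratio, and each gate's plasmids were PCR-amplified and Illumina-sequenced. The protein stability index adds up, over all gates, the read frequency multiplied by the gate number.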
In the case of PSTRCKLKLLRMERIKD [RPT2], the protein stability index is reported as 1.68 ± 0.056.
In the case of PSVKRQKMAELEAARSE [PRP8], the protein stability index is reported as 3.26 ± 0.075.
In the case of PTHIWNAKRSHMMKRWG [POP1], the protein stability index is reported as 2.24 ± 0.068.

Same assay, conditions: san1∆
With NTNELKEVSSFLMGIFN [MTR3] the protein stability index was 2.92 ± 0.061.
Work on NTNTENENRNTGAGVDV [SNF11] yielded a protein stability index of 2.66 ± 0.044.
NTQDLLLLLSLFKKITN [YML103C/NUP188] showed a protein stability index of 1.58 ± 0.068.
With NVFGTLQRHSGISSTLV [YLR018C/POM34] the protein stability index was 1.77 ± 0.23.
In the case of NVNMTVNTMGTGGQTID [MED6], the protein stability index is reported as 3.06 ± 0.14.
In the case of NVNNNNIGQQQVKKPRK [SWI1], the protein stability index is reported as 3.29 ± 0.084.
For NVPVHVSPAFRVQVGDI [RPS11A], the protein stability index was 2.68 ± 0.079.
For NVQLRDVIATEPQGAVT [SMD3], the protein stability index was 2.39 ± 0.09.
In the case of NVRSVIRSSRSRGIVIG [RPP1], the protein stability index is reported as 3.15 ± 0.16.
With NVVEIWVFSYLRWFELK [SIR3] the protein stability index was 2.17 ± 0.16.
Work on NVVGKLISIISSVIQNY [YML103C/NUP188] yielded a protein stability index of 1.36 ± 0.13.
NWAKFTATASLGVIHKG [RPN2] gave a protein stability index of 1.91 ± 0.069.
For NWRRLSGRNIHLAVVCV [SSN2], the protein stability index was 1.55 ± 0.078.
Sequence NYGMIAINPGRVAASFS [FAS1] has a protein stability index of 1.46 ± 0.076.
Work on NYILNFKQSNSETFLQF [CDC53] yielded a protein stability index of 1.77 ± 0.17.
NYLNDMHDSNLQNNSDS [SKP1] showed a protein stability index of 2.3 ± 0.08.
For NYSSESYRNAFTNVLTK [YJL039C/NUP192], the protein stability index was 2.31 ± 0.067.
NYTQNIDNLESYAGIST [SIR2] gave a protein stability index of 2.87 ± 0.071.
PADSTYGAYNTQIANAG [PRE4] gave a protein stability index of 2.08 ± 0.15.
For PAFSFGAKPEEKKDDNS [YJL041W/NSP1], the protein stability index was 2.98 ± 0.24.
PAHTKYMLIEEAASSNK [ITC1] showed a protein stability index of 3.02 ± 0.1.
With PAHTVIIKGTDVYSPEK [BRR2] the protein stability index was 2.54 ± 0.072.
Sequence PALVGKLRGDLREAPAD [SNF6] has a protein stability index of 2.24 ± 0.19.
Sequence PANAEPQAVTITSIMDD [ITC1] has a protein stability index of 2.49 ± 0.069.
Sequence PAQKDSSVVSEPKKPSF [YOR098C/NUP1] has a protein stability index of 2.3 ± 0.076.
With PDGTLIASAGKDGEIML [ASC1] the protein stability index was 3.29 ± 0.045.
PDRHVIFLAERRILPKP [RPS7B] showed a protein stability index of 2.99 ± 0.096.
PDVKSLVQLSTMETKTL [SIR4] showed a protein stability index of 2.81 ± 0.052.
PEPSHIDQVMMSVSDND [RET1] showed a protein stability index of 2.43 ± 0.05.
For PFDQNLDSNNNNSNSNN [SWI1], the protein stability index was 2.839 ± 0.026.
With PFFSSNTSSLQSFQNPF [YIL149C/MLP2] the protein stability index was 2.69 ± 0.05.
PFGAKSTKSNKAKNPLT [RPL8B] showed a protein stability index of 2.98 ± 0.061.
Sequence PFGAKSTKSNKTRNPLT [RPL8A] has a protein stability index of 2.88 ± 0.057.
For PFGVSTIFGGVDKNGAH [PRE10], the protein stability index was 2.73 ± 0.12.
In the case of PFHSHLLVPASDLINKD [FAS1], the protein stability index is reported as 2.13 ± 0.048.
Sequence PFLHLRKKTPAGDWKYD [FAS2] has a protein stability index of 2.54 ± 0.24.
Work on PFLNETKPGVYYVPYSK [RPC82] yielded a protein stability index of 3.03 ± 0.064.
In the case of PFNKPNIETGENHNGQS [SWI3], the protein stability index is reported as 3.22 ± 0.13.
PFTDITVEGISKLLREH [RPB2] showed a protein stability index of 2.51 ± 0.077.
In the case of PGDIVRAQVLSLGDGTN [CSL4], the protein stability index is reported as 3.14 ± 0.12.
Work on PGGAASKSVPTPSLPIA [SNF5] yielded a protein stability index of 2.97 ± 0.036.
With PGSSITETEVEREQPQE [SRB4] the protein stability index was 3.07 ± 0.075.
Work on PHDLIIGTADIFIRQLK [BRR2] yielded a protein stability index of 2.27 ± 0.073.
For PIGRDGKLAKPRQLHNT [RPB2], the protein stability index was 2.67 ± 0.059.
In the case of PILAPSVKDYRPAEETE [RPS3], the protein stability index is reported as 3.174 ± 0.03.
For PIPDARNAALRAKAEAA [SCL1], the protein stability index was 2.44 ± 0.13.
Sequence PKDKAIKRMAIRNIVEA [RPS26A] has a protein stability index of 1.9 ± 0.15.
PKEVDGLEVGPVVQVGI [IRR1] gave a protein stability index of 3.37 ± 0.18.
With PKFAIQDNHHITKVTEN [YMR129W/POM152] the protein stability index was 2.75 ± 0.04.
For PKFGVEGLIRLDNLTED [DIS3], the protein stability index was 3.08 ± 0.043.
PKGATYGKPTNQGVNEL [RPL15A] showed a protein stability index of 3.2 ± 0.054.
Work on PKHSYLSGNPLTSVTND [SIR4] yielded a protein stability index of 3.17 ± 0.056.
In the case of PKIDEDDTWYNLTEFVQ [AAR2], the protein stability index is reported as 3.07 ± 0.049.
PKILIREHERVILKQIL [SWP82] gave a protein stability index of 3.18 ± 0.24.
Work on PKWERVFLFDIEKVDRE [RRI2] yielded a protein stability index of 2.1 ± 0.1.
Sequence PKYESLKLEYYNLLVKI [RPN5] has a protein stability index of 1.12 ± 0.3.
PLAAGNFVSEKGDLRRG [RPC53] showed a protein stability index of 3.31 ± 0.17.
PLAPAPINLPPQIAQLP [SNF5] gave a protein stability index of 1.88 ± 0.12.
PLARNYIKSMDLISKKT [RPR2] gave a protein stability index of 2.77 ± 0.054.
For PLEKITDAYLDQYLWYE [PRP8], the protein stability index was 3.03 ± 0.18.
PLFFVDLKLLFNTEAEQ [RGR1] showed a protein stability index of 3.19 ± 0.085.
With PLINLALIDTEFANFEL [YML103C/NUP188] the protein stability index was 2.5 ± 0.089.
For PLKFKLGPLSYQNMAFI [YJR042W/NUP85], the protein stability index was 2.58 ± 0.062.
For PLKIHRTPYLTSLKKIK [SWI1], the protein stability index was 1.75 ± 0.07.
PLLLVGLDKFSNIDIRV [RPS16A] showed a protein stability index of 1.74 ± 0.094.
For PLPAVFSAPIRPDIVHT [RPL4A], the protein stability index was 2.08 ± 0.06.
Work on PLPSHALTVQEVLNRVA [YDL116W/NUP84] yielded a protein stability index of 2.37 ± 0.053.
In the case of PLSRINENENFGYDIPL [YML103C/NUP188], the protein stability index is reported as 3.15 ± 0.064.
PLSTYNKNGNAVCSTAT [PGD1] showed a protein stability index of 2.37 ± 0.078.
For PLYARYINVNPQEETIT [ECM29], the protein stability index was 2.9 ± 0.067.
PLYVMDEIDAALDFRNV [SMC4] showed a protein stability index of 3.26 ± 0.051.
With PMHSIMPNSSLQPFYSQ [DSN1] the protein stability index was 2.37 ± 0.083.
PNFLGNCNIKDFKPPYI [SWP82] showed a protein stability index of 2.61 ± 0.054.
For PNIHQNLLPKKSAKATK [HTA1], the protein stability index was 2.69 ± 0.1.
Sequence PNKVKTEDIRIRAQNFK [RRP6] has a protein stability index of 2.56 ± 0.077.
For PNTRDAESEAITVTAKQ [SWI3], the protein stability index was 3.17 ± 0.063.
Sequence PPQAGDRSLADDYDYVM [RPB8] has a protein stability index of 3.33 ± 0.084.
For PPSLKIIDGPKALILAP [PRP28], the protein stability index was 1.51 ± 0.12.
PQDDDSQSKMMSSQISS [MTR3] showed a protein stability index of 3.15 ± 0.043.
For PQEETITFLIEKAKEMI [ECM29], the protein stability index was 2.95 ± 0.069.
In the case of PQFNSPYDSNNSNTNLN [SWI1], the protein stability index is reported as 2.76 ± 0.052.
Sequence PQLSKAGKFPTPVSHND [RPL1A] has a protein stability index of 2.36 ± 0.048.
PQMFLNQQAQARQQVAQ [GAL11] gave a protein stability index of 1.9 ± 0.27.
Sequence PQTMEHYKQQIAVLIEL [YCS4] has a protein stability index of 2.92 ± 0.11.
In the case of PRETIPFLHLRKKTPAG [FAS2], the protein stability index is reported as 2.63 ± 0.13.
PRGLNSARKLRVHRRNN [RPS23A] gave a protein stability index of 2.96 ± 0.096.
For PRINNISAEDRADTDLA [SNF2], the protein stability index was 3.02 ± 0.084.
PRQTKKAKAQAQAQAQA [PGD1] gave a protein stability index of 3.22 ± 0.036.
PRSDDLEATWNFIEPGI [CDC53] gave a protein stability index of 3.15 ± 0.096.
In the case of PRVSNQSNEDTFLPSYM [RRI2], the protein stability index is reported as 3.14 ± 0.089.
For PSEFHCLQDALDAIDDF [SSN2], the protein stability index was 3.12 ± 0.05.
Sequence PSIPLVIIRRLKTRDWI [POP1] has a protein stability index of 2.86 ± 0.12.
In the case of PSKGQSLSKISQAFDIV [RPP1], the protein stability index is reported as 2.96 ± 0.11.
For PSLKDSSSNGGGSAKPS [RPC53], the protein stability index was 2.7 ± 0.27.
With PSLNKTINGKVNGRTKS [GAL11] the protein stability index was 2.98 ± 0.14.
Sequence PSNFEINAEEIVDFTLP [PRP8] has a protein stability index of 3 ± 0.064.
In the case of PSNSTTTLHGPGFQLPN [SRB8], the protein stability index is reported as 2.71 ± 0.066.
PSPYKTTVYRYSAAKKI [YAR002W/NUP60] showed a protein stability index of 1.49 ± 0.069.
Work on PSRTRETATSERNASEV [GRR1] yielded a protein stability index of 2.86 ± 0.091.
Sequence PSSLNSDKIPYVAPTKK [SRB4] has a protein stability index of 2.15 ± 0.086.
PSTRCKLKLLRMERIKD [RPT2] gave a protein stability index of 1.88 ± 0.089.
For PSVKRQKMAELEAARSE [PRP8], the protein stability index was 3.31 ± 0.074.
